Numbering of substitutions follows the chain as printed.
T1: human EphB1 (Homo sapiens, UniProt P54762)
T1 construct: a protein of the extracellular region of each human Eph receptor fused with the SEAP protein and the His tag; made in house; host or cells: Expi293F cells (culture supernatant)
T1 sequence (P54762 18-540 limits assumed): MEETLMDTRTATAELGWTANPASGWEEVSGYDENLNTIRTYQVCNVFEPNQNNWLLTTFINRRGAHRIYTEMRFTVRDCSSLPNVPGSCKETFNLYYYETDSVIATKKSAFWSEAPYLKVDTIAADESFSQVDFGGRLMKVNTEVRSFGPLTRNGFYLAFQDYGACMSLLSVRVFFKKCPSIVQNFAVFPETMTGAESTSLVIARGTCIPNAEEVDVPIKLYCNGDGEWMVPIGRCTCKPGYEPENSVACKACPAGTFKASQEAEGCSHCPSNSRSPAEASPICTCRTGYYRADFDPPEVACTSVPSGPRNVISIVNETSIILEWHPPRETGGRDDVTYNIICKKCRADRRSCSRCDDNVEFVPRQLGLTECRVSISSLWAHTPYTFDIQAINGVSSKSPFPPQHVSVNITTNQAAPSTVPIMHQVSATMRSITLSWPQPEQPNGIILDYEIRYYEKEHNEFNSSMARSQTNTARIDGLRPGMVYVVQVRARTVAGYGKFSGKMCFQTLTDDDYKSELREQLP

T2: human EphA8 (Homo sapiens, UniProt P29322)
T2 construct: a protein of the extracellular region of each human Eph receptor fused with the SEAP protein and the His tag; made in house; host or cells: Expi293F cells (culture supernatant)
T2 sequence (P29322 28-542 limits assumed): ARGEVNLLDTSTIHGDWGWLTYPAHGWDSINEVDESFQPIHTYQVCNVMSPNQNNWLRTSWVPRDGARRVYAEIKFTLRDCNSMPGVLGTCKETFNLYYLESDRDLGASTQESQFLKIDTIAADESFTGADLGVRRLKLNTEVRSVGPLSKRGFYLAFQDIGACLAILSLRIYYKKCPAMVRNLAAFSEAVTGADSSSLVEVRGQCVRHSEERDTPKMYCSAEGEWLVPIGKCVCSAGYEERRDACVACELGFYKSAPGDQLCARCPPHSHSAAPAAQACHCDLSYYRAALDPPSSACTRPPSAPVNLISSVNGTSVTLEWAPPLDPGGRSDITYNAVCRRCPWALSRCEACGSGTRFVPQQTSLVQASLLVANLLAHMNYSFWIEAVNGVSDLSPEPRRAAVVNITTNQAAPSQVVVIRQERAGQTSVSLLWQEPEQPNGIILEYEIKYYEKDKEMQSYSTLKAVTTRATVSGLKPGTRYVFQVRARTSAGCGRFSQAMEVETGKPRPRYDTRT

B1: 158 (antibody, V domains shown)
VH: QVQLVQSGSELKKPGASVKVSCKASGYTFTDYSMHWVRQAPGQGLKWMGWINTETGEPTYAQGFTGRFVFSLDTSVSTAYLQISSLKAEDTAVYYCARIPLYYYGSRYWYFDVWGQGTTVTVSS
VL: DIQMTQSPSSLSASVGDRVTITCRASENIYRNLAWYQQKPGKAPQLLLYAATNLADGVPSRFSGSGSGTDYTLTISSLQPEDFATYYCQHFWGTPWTFGQGTKVEIK
modifications: synthetic humanized antibody heavy chain variable region sequence; synthetic humanized antibody light chain variable region sequence
B2: 133 (antibody, V domains shown)
VH: B1 VH with K46E
VL: EIVMTQSPATLSVSPGERATLSCRASENIYRNLAWYQQKPGQSPRLLIYAATNLADGIPARFSGSGSGTEYTLTISSLQSEDFAVYYCQHFWGTPWTFGQGTKVEIK
modifications: synthetic humanized antibody heavy chain variable region sequence; synthetic humanized antibody light chain variable region sequence
B3: 159 (antibody, V domains shown)
VH: B1 VH with Q62D, G63D, T65K
VL: B1 VL
modifications: synthetic humanized antibody heavy chain variable region sequence; synthetic humanized antibody light chain variable region sequence
B4: 144 (antibody, V domains shown)
VH: B1 VH with K46E, Q62D, G63D, T65K
VL: B1 VL
modifications: synthetic humanized antibody heavy chain variable region sequence; synthetic humanized antibody light chain variable region sequence
B5: 132 (antibody, V domains shown)
VH: B1 VH with V2I
VL: B2 VL
modifications: synthetic humanized antibody heavy chain variable region sequence; synthetic humanized antibody light chain variable region sequence
B6: 134 (antibody, V domains shown)
VH: B1 VH
VL: B2 VL
modifications: synthetic humanized antibody heavy chain variable region sequence; synthetic humanized antibody light chain variable region sequence
B7: 160 (antibody, V domains shown)
VH: B1 VH with V2I, Q62D, G63D, T65K
VL: B1 VL
modifications: synthetic humanized antibody heavy chain variable region sequence; synthetic humanized antibody light chain variable region sequence
B8: 135 (antibody, V domains shown)
VH: B1 VH with K46E, Q62D, G63D, T65K
VL: B2 VL
modifications: synthetic humanized antibody heavy chain variable region sequence; synthetic humanized antibody light chain variable region sequence

Key:
Assay in all cases: Selectivity ELISA of humanized antibodies for human Eph receptor
Type in all cases: binding
[1] = target: T3, human EphA2 (Homo sapiens, UniProt P29317); conditions: coated protein 1 nM
T3 construct: a protein of the extracellular region of each human Eph receptor fused with the SEAP protein and the His tag; made in house; host or cells: Expi293F cells (culture supernatant)
T3 sequence (P29317 24-537 limits assumed): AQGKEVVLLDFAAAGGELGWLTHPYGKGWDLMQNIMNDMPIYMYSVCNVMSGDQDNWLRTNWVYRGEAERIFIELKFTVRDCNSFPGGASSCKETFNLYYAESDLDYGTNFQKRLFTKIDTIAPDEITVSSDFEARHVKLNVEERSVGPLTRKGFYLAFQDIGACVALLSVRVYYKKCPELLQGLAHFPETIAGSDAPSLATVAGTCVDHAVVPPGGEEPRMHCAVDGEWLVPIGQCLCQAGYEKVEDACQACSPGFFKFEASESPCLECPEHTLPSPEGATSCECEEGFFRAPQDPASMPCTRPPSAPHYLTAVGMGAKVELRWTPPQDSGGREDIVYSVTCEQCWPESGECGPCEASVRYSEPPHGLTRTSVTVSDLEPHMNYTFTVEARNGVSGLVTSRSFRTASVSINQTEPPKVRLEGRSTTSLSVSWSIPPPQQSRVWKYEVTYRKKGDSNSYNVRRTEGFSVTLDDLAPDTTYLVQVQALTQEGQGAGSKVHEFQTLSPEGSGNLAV
Outline: (§1)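 Steps: coat anti-His antibody; block, then 1% BlockAce overnight at 4 °C; add Eph receptor extracellular region-SEAP-His (1 nM final) 1 h; add humanized antibody 1 h; add HRP anti-IgG 1 h; develop TMB; stop with acid; read 450 nm.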

[2] = target: T4, human EphA5 (Homo sapiens, UniProt P54756); conditions: coated protein 1 nM
T4 construct: a protein of the extracellular region of each human Eph receptor fused with the SEAP protein and the His tag; made in house; host or cells: Expi293F cells (culture supernatant)
T4 sequence (P54756 25-573 limits assumed): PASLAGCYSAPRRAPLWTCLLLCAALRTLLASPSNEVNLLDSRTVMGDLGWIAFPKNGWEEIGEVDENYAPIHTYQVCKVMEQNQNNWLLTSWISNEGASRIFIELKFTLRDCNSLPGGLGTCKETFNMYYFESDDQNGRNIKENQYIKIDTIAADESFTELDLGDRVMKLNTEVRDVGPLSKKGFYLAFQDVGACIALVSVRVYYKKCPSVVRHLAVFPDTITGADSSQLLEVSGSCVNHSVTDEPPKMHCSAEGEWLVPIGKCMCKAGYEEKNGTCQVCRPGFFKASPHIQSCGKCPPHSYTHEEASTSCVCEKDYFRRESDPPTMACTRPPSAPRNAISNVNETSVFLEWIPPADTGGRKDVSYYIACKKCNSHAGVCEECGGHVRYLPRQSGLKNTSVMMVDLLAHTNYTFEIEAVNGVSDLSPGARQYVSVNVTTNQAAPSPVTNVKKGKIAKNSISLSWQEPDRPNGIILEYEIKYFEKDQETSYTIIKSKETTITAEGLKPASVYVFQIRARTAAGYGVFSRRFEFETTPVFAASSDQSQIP
Outline: as §1

[3] = target: T1, human EphB1; conditions: coated protein 1 nM
Outline: as §1

[4] = target: SEAP-His (Homo sapiens, UniProt P05187); conditions: coated protein 1 nM
SEAP-His, sequence (P05187 23-511 limits assumed): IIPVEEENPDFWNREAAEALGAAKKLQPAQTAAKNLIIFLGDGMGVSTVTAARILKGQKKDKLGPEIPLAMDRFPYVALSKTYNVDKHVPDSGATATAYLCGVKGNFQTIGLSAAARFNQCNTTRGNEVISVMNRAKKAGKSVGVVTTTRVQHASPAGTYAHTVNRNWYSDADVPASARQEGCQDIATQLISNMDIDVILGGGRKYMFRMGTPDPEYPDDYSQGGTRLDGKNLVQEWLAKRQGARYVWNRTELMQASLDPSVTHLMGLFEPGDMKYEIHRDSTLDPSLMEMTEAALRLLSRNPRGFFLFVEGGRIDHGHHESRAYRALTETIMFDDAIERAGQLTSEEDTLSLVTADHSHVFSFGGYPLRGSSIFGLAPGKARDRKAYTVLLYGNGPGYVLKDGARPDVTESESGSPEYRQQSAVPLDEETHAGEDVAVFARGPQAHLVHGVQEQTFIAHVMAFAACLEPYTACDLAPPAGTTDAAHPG
Outline: as §1

[5] = target: T5, human EphA4 (Homo sapiens, UniProt P54764); conditions: coated protein 1 nM; reference set to 100%
T5 construct: made in house; not restated for the human SEAP-His protein
T5 sequence (P54764 20-547): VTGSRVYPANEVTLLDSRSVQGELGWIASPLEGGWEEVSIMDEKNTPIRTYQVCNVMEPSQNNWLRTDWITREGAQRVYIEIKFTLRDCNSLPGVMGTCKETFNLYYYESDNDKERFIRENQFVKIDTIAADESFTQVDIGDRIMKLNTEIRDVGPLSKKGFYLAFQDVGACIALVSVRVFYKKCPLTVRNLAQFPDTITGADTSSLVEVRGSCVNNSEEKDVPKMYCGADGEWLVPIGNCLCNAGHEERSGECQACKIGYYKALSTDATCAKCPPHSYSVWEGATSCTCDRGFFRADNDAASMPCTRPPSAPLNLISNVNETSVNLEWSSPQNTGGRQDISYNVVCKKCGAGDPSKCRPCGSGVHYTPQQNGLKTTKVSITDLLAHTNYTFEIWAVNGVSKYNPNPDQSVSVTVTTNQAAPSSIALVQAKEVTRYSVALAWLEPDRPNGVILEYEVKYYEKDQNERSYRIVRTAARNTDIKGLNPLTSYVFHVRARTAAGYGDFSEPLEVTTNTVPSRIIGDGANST
Outline: as §1

[6] = target: T2, human EphA8; conditions: coated protein 1 nM
Outline: as §1

| Molecule | hEphA2-SEAP-: absorbance at 450 nm, percentage with respect to hEphA4-SEAP-His as 100% [1] [%] | hEphA5-SEAP-: absorbance at 450 nm, percentage with respect to hEphA4-SEAP-His as 100% [2] [%] | hEphB1-SEAP-: absorbance at 450 nm, percentage with respect to hEphA4-SEAP-His as 100% [3] [%] | SEAP-His: absorbance at 450 nm, percentage with respect to hEphA4-SEAP-His as 100% [4] [%] | hEphA4-SEAP-: absorbance at 450 nm, percentage with respect to hEphA4-SEAP-His as 100% [5] [%] | hEphA8-SEAP-: absorbance at 450 nm, percentage with respect to hEphA4-SEAP-His as 100% [6] [%] |
| --- | --- | --- | --- | --- | --- | --- |
| B1 | 6.7 | 6.7 | 6.2 | 6.3 | 100 | 6.4 |
| B2 | 4.7 | 4.7 | 4.6 | 4.7 | 100 | 4.7 |
| B3 | 5.4 | 5.5 | 5.3 | 5.3 | 100 | 5.5 |
| B4 | 5.6 | 5.6 | 5.7 | 5.7 | 100 | 5.8 |
| B5 | 4.8 | 4.7 | 4.8 | 4.9 | 100 | 4.7 |
| B6 | 5.0 | 5.2 | 5.1 | 5.1 | 100 | 5.7 |
| B7 | 6.1 | 6.5 | 6.1 | 6.3 | 100 | 5.4 |
| B8 | 5.0 | 5.0 | 5.1 | 5.3 | 100 | 5.0 |

From US10428140B2, “Anti-EphA4 antibody” (EISAI R&D MANAGEMENT CO., LTD., priority 2015, dated 2019)
